According to patent US20200199207A1 (MABYLON, published 2020):

Legend:
Experiment in all cases: competition ELISA, peptide in solution vs coated Ara h 2
Peptide 17 = biological target: T1, Peptide 17 (peanut)
T1 construct: also called linear Ara h 2 peptide 17
T1 peptide: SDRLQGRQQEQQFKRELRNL
Description: (§1) A competition ELISA was used to evaluate binding of exemplary anti-peanut antibodies of the present invention to linear Ara h 2 epitopes. Serial dilutions of linear Ara h 2 epitopes (100 μM down to 0.19 nM; peptides with a length of 20 amino acids and an overlap of 12 amino acids between the peptides) were pre-incubated with exemplary anti-peanut antibodies ([…]) for 1 hour at room temperature. The pre-incubated antibody-epitope mixtures were subsequently incubated on plates coated with full length Ara h 2 (coating overnight at 4° C. with 0.05 μg/ml Ara h 2 in PBS, followed by wash out and blocking with 2% BSA in PBS). The plates were subsequently washed and binding of MAbs to Ara h 2 was detected HRP-conjugated goat anti human Fc-gamma-specific antibody (Jackson ImmunoResearch, West Grove, Pa., USA) followed by measurement of the HRP activity using a tetramethylbenzidine substrate solution (TMB, Sigma-Aldrich Chemie GmbH, Buchs, Switzerland). As may be seen from Table 5, exemplary anti-peanut allergen antibody 32B10 binds to different linear Ara h 2 epitopes than 12G10 and 37D5.

Peptide 4 = biological target: T2, Peptide 4 (peanut)
T2 construct: also called linear Ara h 2 peptide 4
T2 peptide: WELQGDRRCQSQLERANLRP
Description: as §1

Peptide 9 = biological target: T3, Peptide 9 (peanut)
T3 construct: also called linear Ara h 2 peptide 9
T3 peptide: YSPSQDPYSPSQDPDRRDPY
Description: as §1

Peptide 12 = biological target: T4, Peptide 12 (peanut)
T4 construct: also called linear Ara h 2 peptide 12
T4 peptide: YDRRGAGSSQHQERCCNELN
Description: as §1

Peptide 2 = biological target: T5, Peptide 2 (peanut)
T5 construct: also called linear Ara h 2 peptide 2
T5 peptide: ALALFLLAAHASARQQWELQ
Description: as §1

Peptide 18 = biological target: T6, Peptide 18 (peanut)
T6 construct: also called linear Ara h 2 peptide 18
T6 peptide: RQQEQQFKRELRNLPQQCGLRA
Description: as §1

Peptide 20 = biological target: T7, Peptide 20 (peanut)
T7 construct: also called linear Ara h 2 peptide 20
T7 peptide: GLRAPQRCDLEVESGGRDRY
Description: as §1

Peptide 16 = biological target: T8, Peptide 16 (peanut)
T8 construct: also called linear Ara h 2 peptide 16
T8 peptide: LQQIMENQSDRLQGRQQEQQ
Description: as §1

Peptide 8 = biological target: T9, Peptide 8 (peanut)
T9 construct: also called linear Ara h 2 peptide 8
T9 peptide: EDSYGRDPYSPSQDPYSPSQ
Description: as §1

Peptide 6 = biological target: T10, Peptide 6 (peanut)
T10 construct: also called linear Ara h 2 peptide 6
T10 peptide: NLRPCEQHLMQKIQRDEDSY
Description: as §1

Peptide 1 = biological target: T11, Peptide 1 (peanut)
T11 construct: 20-mer of Ara h 2, overlap of 12 with its neighbours; also called linear Ara h 2 peptide 1
T11 peptide: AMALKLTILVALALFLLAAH
Description: as §1

Peptide 19 = biological target: T12, Peptide 19 (peanut)
T12 construct: also called linear Ara h 2 peptide 19
T12 peptide: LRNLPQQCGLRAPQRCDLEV
Description: as §1

Peptide 14 = biological target: T13, Peptide 14 (peanut)
T13 construct: also called linear Ara h 2 peptide 14
T13 peptide: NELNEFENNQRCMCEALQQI
Description: as §1

Peptide 11 = biological target: T14, Peptide 11 (peanut)
T14 construct: also called linear Ara h 2 peptide 11
T14 peptide: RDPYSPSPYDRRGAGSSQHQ
Description: as §1

Peptide 15 = biological target: T15, Peptide 15 (peanut)
T15 construct: also called linear Ara h 2 peptide 15
T15 peptide: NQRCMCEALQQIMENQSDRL
Description: as §1

Peptide 10 = biological target: T16, Peptide 10 (peanut)
T16 construct: also called linear Ara h 2 peptide 10
T16 peptide: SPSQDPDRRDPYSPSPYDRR
Description: as §1

Peptide 7 = biological target: T17, Peptide 7 (peanut)
T17 construct: also called linear Ara h 2 peptide 7
T17 peptide: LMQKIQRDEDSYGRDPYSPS
Description: as §1

Peptide 5 = biological target: T18, Peptide 5 (peanut)
T18 construct: also called linear Ara h 2 peptide 5
T18 peptide: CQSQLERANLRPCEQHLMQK
Description: as §1

Peptide 3 = biological target: T19, Peptide 3 (peanut)
T19 construct: also called linear Ara h 2 peptide 3
T19 peptide: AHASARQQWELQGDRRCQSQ
Description: as §1

Peptide 13 = biological target: T20, Peptide 13 (peanut)
T20 construct: also called linear Ara h 2 peptide 13
T20 peptide: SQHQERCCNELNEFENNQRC
Description: as §1

Measured: binding result

B1: h2F8 (antibody, V domains shown)
VH: EVQLVESGGGLVKPGGSLRLSCAASGFIFSDYNMNWVRQAPGKGLEWVSSITRSSRTIYYADSVKGRFTISRDNAKNSLHLQMNSLRDADTAVYYCAREDFDVSTGPYYMDVWGNGTTVIVSS
VL: EIVLTQSPGTLSLSPGERATLSCRASQSVSNMFLVWYQQKPGQAPRLLMYGASTRATDIPDRFSGSGSGTDFTLTISRLEPEDFAVYYCQQNGNSPYTFGQGTKLEIK
notes: Recombinant human IgG; also called hMAb 2F8
no binding (tested: 100 µM): all assays above

B2: h7G6 (antibody, V domains shown)
VH: QVQLVESGGGVVQPGRSLRLSCAASGIAFNDYTMHWVRRSPDKGLEWVAAISYGGTNKYYADSVKGRFTISRDSSKNTLFLQMDSLRVEDTAVYYCARDSGYRSLLHWGQGTLVTVSS
VL: EIVLTQSPLSLPVTPGEPASISCRSSQSLVHRNGYNYLDWYLQKPGQSPQLLIYMASKRASGVPDRFSGSGSGTEFTLKISRVEAEDVGIYYCMQALQTWTFGQGTKVEVN
notes: Recombinant human IgG; also called hMAb 7G6
no binding (tested: 100 µM): all assays above
